Laboratory results reported in PMC7468209, “The Nucleoid Occlusion Protein SlmA Binds to Lipid Membranes” (mBio, 2020).

Biological target: the molecule itself
Assay: AUC; sedimentation velocity, 5 uM SlmA without SBS, working buffer (50 mM Tris-HCl pH 7.5, 5 mM MgCl2) with 100, 300 or 500 mM KCl, 48,000 rpm, 20 C, absorbance at 230 nm, c(s) in SEDFIT

B1: SlmA (natural protein, E. coli, UniProt P0C093 1-198, looked up)
chain: MAEKQTAKRNRREEILQSLALMLESSDGSQRITTAKLAASVGVSEAALYRHFPSKTRMFDSLIEFIEDSLITRINLILKDEKDTTARLRLIVLLLLGFGERNPGLTRILTGHALMFEQDRLQGRINQLFERIEAQLRQVLREKRMREGEGYTTDETLLASQILAFCEGMLSRFVRSEFKYRPTDDFDARWPLIAAQLQ
modifications: Alexa Fluor 488 on amino groups (0.3-0.6 mol dye per mol protein), only in the tracer fraction (1 uM of 5 uM) of the microdroplet experiments; unlabelled in the sedimentation velocity experiments
notes: SlmA, nucleoid occlusion protein of Escherichia coli; also called nucleoid occlusion protein SlmA; nucleoid occlusion factor SlmA
  stoichiometry N: 2
